For the assay, the target named is microtubules (polymers of α/β-tubulin) of the co-sedimentation and negative-stain EM experiments. Nature of the assay: co-sedimentation.
Chain of microtubules (polymers of α/β-tubulin) of the co-sedimentation and negative-stain EM experiments (P68363 whole entry, chain 1 of 2): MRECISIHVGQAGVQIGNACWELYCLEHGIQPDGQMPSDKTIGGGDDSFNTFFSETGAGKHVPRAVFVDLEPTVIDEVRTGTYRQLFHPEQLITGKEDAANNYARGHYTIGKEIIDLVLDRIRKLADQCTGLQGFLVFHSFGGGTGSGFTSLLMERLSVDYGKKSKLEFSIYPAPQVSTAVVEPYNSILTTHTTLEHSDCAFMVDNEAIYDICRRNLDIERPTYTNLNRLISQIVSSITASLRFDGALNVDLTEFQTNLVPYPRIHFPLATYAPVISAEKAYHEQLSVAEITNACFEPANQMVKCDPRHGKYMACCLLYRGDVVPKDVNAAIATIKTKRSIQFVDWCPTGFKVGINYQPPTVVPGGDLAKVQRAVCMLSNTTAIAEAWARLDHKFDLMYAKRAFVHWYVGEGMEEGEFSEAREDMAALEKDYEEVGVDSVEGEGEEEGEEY
Chain of microtubules (polymers of α/β-tubulin) of the co-sedimentation and negative-stain EM experiments (A8K068 whole entry, chain 2 of 2, further chain): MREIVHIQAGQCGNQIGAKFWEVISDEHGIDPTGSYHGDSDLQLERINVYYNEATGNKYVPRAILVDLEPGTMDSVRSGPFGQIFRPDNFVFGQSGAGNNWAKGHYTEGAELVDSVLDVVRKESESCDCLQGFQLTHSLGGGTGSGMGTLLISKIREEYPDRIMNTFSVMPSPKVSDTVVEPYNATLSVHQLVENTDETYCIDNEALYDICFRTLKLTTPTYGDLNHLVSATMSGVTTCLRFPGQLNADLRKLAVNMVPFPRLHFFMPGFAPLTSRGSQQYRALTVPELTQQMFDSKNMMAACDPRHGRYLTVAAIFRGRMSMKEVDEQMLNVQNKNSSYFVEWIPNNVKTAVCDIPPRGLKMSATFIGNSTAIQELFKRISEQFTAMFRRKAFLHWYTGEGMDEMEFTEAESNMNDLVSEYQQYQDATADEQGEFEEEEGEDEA

B1: Hice1-MTBR (Hice1 microtubule-binding region, a.a. 1–141), Q9BT25 1-141 (domain or fragment)
chain: MADSSGRGAGKPATGPTNSSSAKKKDKRVQGGRVIESRYLQYEKKTTQKAPAGDGSQTRGKMSEGGRKSSLLQKSKADSSGVGKGDLQSTLLEGHGTAPPDLDLSAINDKSIVKKTPQLAKTISKKPESTSFSAPRKKSPD
Consider B1, for which the Kd was 9.33 µM.

These data come from article PMC4244909.
